Target: T1, Flag-tagged RelishΔS29-S45 (Drosophila melanogaster, UniProt Q94527 1-971, ΔS29-S45)
T1 sequence (looked up): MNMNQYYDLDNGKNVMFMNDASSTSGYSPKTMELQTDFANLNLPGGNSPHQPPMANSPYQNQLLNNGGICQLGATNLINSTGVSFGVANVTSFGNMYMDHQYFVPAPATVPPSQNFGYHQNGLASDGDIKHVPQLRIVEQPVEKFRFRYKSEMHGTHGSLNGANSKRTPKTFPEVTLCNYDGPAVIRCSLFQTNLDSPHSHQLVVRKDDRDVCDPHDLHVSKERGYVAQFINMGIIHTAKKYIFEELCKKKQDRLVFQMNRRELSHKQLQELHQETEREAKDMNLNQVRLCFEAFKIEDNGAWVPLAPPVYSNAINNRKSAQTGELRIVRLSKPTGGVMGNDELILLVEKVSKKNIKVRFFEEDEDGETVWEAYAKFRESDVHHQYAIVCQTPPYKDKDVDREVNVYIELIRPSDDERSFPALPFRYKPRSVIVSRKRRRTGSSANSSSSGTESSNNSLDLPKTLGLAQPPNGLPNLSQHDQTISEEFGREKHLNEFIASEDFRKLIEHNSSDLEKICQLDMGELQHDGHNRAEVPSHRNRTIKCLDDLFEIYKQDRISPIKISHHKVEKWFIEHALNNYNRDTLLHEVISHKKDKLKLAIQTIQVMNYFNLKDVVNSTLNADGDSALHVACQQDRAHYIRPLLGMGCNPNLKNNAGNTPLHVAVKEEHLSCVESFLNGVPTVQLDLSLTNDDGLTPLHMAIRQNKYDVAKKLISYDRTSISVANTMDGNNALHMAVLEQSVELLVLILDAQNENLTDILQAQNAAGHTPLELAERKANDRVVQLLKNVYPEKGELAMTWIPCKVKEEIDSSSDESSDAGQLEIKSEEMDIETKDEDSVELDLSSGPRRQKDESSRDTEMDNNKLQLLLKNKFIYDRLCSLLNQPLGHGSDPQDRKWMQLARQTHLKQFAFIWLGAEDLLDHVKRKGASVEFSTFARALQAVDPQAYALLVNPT
Assay: co-IP

B1: His-tagged Akirin (natural protein, Drosophila melanogaster, UniProt Q9VS59 1-201, looked up)
chain: MACATLKRALDWESMNQRPPKRRRCNPFGQAGSNAGPASPSRDGPSTSAGLPHTPSNRFAKDSTEPSPFSESSLAKMSPDKMAESLCNEIKRLHKRKQLPITSSALERMQDSESSGSEMGPESPRRPDSPQNLMRHGEKALFTFKQVQLICESMIKERENQLRERYESVLTTKLAEQYDAFVKFTYDQIQRRYEAAPSYLS
B1: binds.
